For experiment [1], the target named is CsuA/B (wild type, co-expressed with the CsuC chaperone) (Acinetobacter baumannii). The experiment can be described thus: pull-down.
For experiment [2], the target named is CsuA/B Arg104Cys (in Csu pili) (Acinetobacter baumannii). Nature of the experiment: optical tweezers force spectroscopy; single pili on E. coli cells mounted on a bead, polystyrene probe bead; extension at a constant speed of 50 nm/s; force of region II (clinch opening).
Experiment [3] concerns the target CsuA/B, major subunit of the Csu pilus rod (wild type, in Csu pili) (Acinetobacter baumannii). The description is as above.
In experiment [4] the target is CsuA/B Val2Ala (in Csu pili) (Acinetobacter baumannii). The description is as above.
The target in experiment [5] is FimD NTD (Escherichia coli) (UniProt P30130). The settings on record: cited from earlier work.
Experiment [6] concerns the target FimD (Escherichia coli) (UniProt P30130). The conditions noted are these: cited from earlier work.

“CsuA/B (wild type, co-expressed with the CsuC chaperone) (natural protein)”: the stoichiometry N in experiment [1] was in the range of 1 to 8.

With “CsuA/B Arg104Cys (in Csu pili) (natural protein)”, the clinch opening force in experiment [2] came to 19.8 pN. For the substance “CsuA/B, major subunit of the Csu pilus rod (wild type, in Csu pili) (natural protein)”, the clinch opening force in experiment [3] was 23 pN.

In the case of “CsuA/B Val2Ala (in Csu pili) (natural protein)”, in experiment [4], the clinch opening force was determined as 15 pN. For FimC-FimH complex (from UniProt P31697), the Kd was 960 nM in experiment [5] and 12.5 nM in experiment [6].

Usually stoichiometry N stands for a count of units in the complex or per binding partner. In general, Kd refers to the concentration at which binding is half-saturated.

Values taken from publication PMC9452303.
